According to patent US20210324011A1 (University of Washington, published 2021):

Key:
DHF119_C6_anchor [1] = target: T1, DHF119_C6_anchor; experiment: anchor on streptavidin-coated magnetic beads, microscopy
T1 construct: hexamer: avi-tag, monomer of designed hexamer 3H22, (GGS)5 linker, C cap of DHF119; also called anchor DHF119_C6
T1 chain: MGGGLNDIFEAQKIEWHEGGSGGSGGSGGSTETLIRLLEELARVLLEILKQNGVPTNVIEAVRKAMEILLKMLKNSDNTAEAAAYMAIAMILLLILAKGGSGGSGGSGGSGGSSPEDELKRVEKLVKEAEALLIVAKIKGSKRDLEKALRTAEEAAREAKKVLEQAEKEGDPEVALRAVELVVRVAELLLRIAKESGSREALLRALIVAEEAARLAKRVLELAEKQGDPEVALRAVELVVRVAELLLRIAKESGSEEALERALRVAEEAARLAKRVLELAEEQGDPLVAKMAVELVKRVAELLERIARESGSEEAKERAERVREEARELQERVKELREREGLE

DHF119_C6_anchor [2] = target: T1, DHF119_C6_anchor; experiment: TIRF microscopy over 30 minutes

B1: DHF119 (designed binder)
chain: MGPEDELKRVEKLVKEAEALLIVAKIKGSKRDLEKALRTAEEAAREAVKVLVQALLEGDPEVALRAVELVVRVAELLLRIAKESGSREALLRALIVAEEAAKLAKMVLELAEKQGDPEVALRAVELVVRVAELLLRIAKESGSEEALERALRVAEEAARLAKRVLELAEEQGDPLVAKMAVELVKRVAELLERIARESGSEEAKERAERVREEARELQERVKELREREGLE
notes: vector pET28b; forms a homo-polymer; cryoEM PDB 6E9Z
Question: Does B1 bind (DHF119_C6_anchor [1])?
Answer: binds

B2: DHF119-GFP (designed binder)
chain: MGPEDELKRVEKLVKEAEALLIVAKIKGSKRDLEKALRTAEEAAREAVKVLVQALLEGDPEVALRAVELVVRVAELLLRIAKESGSREALLRALIVAEEAAKLAKMVLELAEKQGDPEVALRAVELVVRVAELLLRIAKESGSEEALERALRVAEEAARLAKRVLELAEEQGDPLVAKMAVELVKRVAELLERIARESGSEEAKERAERVREEARELQERVKELREREGLE
notes: not shown: green fluorescent protein
Question: Does B2 bind (DHF119_C6_anchor [2])?
Answer: binds
